Reference: patent US20160333062A1 (REGENTS OF THE UNIVERSITY OF COLORADO A BODY CORPORATE, published 2016)
Non-standard residues stand in square brackets, D forms with d. No end group written: not given here.

B1: D-Piscidin 1 I9K (peptide)
peptide: [dF][dF][dH][dH][dI][dF][dR]G[dK][dV][dH][dV]G[dK][dT][dI][dH][dR][dL][dV][dT]G-NH2
modifications: N-terminus assumed
SMILES: CC[C@@H](C)[C@@H](NC(=O)[C@@H](Cc1c[nH]cn1)NC(=O)[C@@H](Cc1c[nH]cn1)NC(=O)[C@@H](Cc1ccccc1)NC(=O)[C@H](N)Cc1ccccc1)C(=O)N[C@H](Cc1ccccc1)C(=O)N[C@H](CCCNC(=N)N)C(=O)NCC(=O)N[C@H](CCCCN)C(=O)N[C@@H](C(=O)N[C@H](Cc1c[nH]cn1)C(=O)N[C@@H](C(=O)NCC(=O)N[C@H](CCCCN)C(=O)N[C@@H](C(=O)N[C@@H](C(=O)N[C@H](Cc1c[nH]cn1)C(=O)N[C@H](CCCNC(=N)N)C(=O)N[C@H](CC(C)C)C(=O)N[C@@H](C(=O)N[C@@H](C(=O)NCC(N)=O)[C@H](C)O)C(C)C)[C@H](C)CC)[C@H](C)O)C(C)C)C(C)C
notes: Synthetic all-D analog; also called D-Piscidin I9K
B2: D-Piscidin 1 G13K (peptide)
peptide: [dF][dF][dH][dH][dI][dF][dR]G[dI][dV][dH][dV][dK][dK][dT][dI][dH][dR][dL][dV][dT]G-NH2
modifications: N-terminus assumed
SMILES: CC[C@@H](C)[C@@H](NC(=O)CNC(=O)[C@@H](CCCNC(=N)N)NC(=O)[C@@H](Cc1ccccc1)NC(=O)[C@H](NC(=O)[C@@H](Cc1c[nH]cn1)NC(=O)[C@@H](Cc1c[nH]cn1)NC(=O)[C@@H](Cc1ccccc1)NC(=O)[C@H](N)Cc1ccccc1)[C@H](C)CC)C(=O)N[C@@H](C(=O)N[C@H](Cc1c[nH]cn1)C(=O)N[C@@H](C(=O)N[C@H](CCCCN)C(=O)N[C@H](CCCCN)C(=O)N[C@@H](C(=O)N[C@@H](C(=O)N[C@H](Cc1c[nH]cn1)C(=O)N[C@H](CCCNC(=N)N)C(=O)N[C@H](CC(C)C)C(=O)N[C@@H](C(=O)N[C@@H](C(=O)NCC(N)=O)[C@H](C)O)C(C)C)[C@H](C)CC)[C@H](C)O)C(C)C)C(C)C
notes: Synthetic all-D analog; also called D-Piscidin G13K
B3: D-Dermaseptin S4 L7K, A14K (peptide)
peptide: [dA][dL][dW][dM][dT][dL][dK][dK][dK][dV][dL][dK][dA][dK][dA][dK][dA][dL][dN][dA][dV][dL][dV]G[dA][dN][dA]-NH2
modifications: N-terminus assumed
SMILES: CSCC[C@@H](NC(=O)[C@@H](Cc1c[nH]c2ccccc12)NC(=O)[C@@H](CC(C)C)NC(=O)[C@@H](C)N)C(=O)N[C@@H](C(=O)N[C@H](CC(C)C)C(=O)N[C@H](CCCCN)C(=O)N[C@H](CCCCN)C(=O)N[C@H](CCCCN)C(=O)N[C@@H](C(=O)N[C@H](CC(C)C)C(=O)N[C@H](CCCCN)C(=O)N[C@H](C)C(=O)N[C@H](CCCCN)C(=O)N[C@H](C)C(=O)N[C@H](CCCCN)C(=O)N[C@H](C)C(=O)N[C@H](CC(C)C)C(=O)N[C@H](CC(N)=O)C(=O)N[C@H](C)C(=O)N[C@@H](C(=O)N[C@H](CC(C)C)C(=O)N[C@@H](C(=O)NCC(=O)N[C@H](C)C(=O)N[C@H](CC(N)=O)C(=O)N[C@H](C)C(N)=O)C(C)C)C(C)C)C(C)C)[C@H](C)O
notes: Synthetic all-D analog; also called D-Dermaseptin S4 L7K, A14K (27-mer)
B4: D-Dermaseptin S4 L7K (peptide)
peptide: [dA][dL][dW][dM][dT][dL][dK][dK][dK][dV][dL][dK][dA][dA][dA][dK][dA][dL][dN][dA][dV][dL][dV]G[dA][dN][dA]-NH2
modifications: N-terminus assumed
SMILES: CSCC[C@@H](NC(=O)[C@@H](Cc1c[nH]c2ccccc12)NC(=O)[C@@H](CC(C)C)NC(=O)[C@@H](C)N)C(=O)N[C@@H](C(=O)N[C@H](CC(C)C)C(=O)N[C@H](CCCCN)C(=O)N[C@H](CCCCN)C(=O)N[C@H](CCCCN)C(=O)N[C@@H](C(=O)N[C@H](CC(C)C)C(=O)N[C@H](CCCCN)C(=O)N[C@H](C)C(=O)N[C@H](C)C(=O)N[C@H](C)C(=O)N[C@H](CCCCN)C(=O)N[C@H](C)C(=O)N[C@H](CC(C)C)C(=O)N[C@H](CC(N)=O)C(=O)N[C@H](C)C(=O)N[C@@H](C(=O)N[C@H](CC(C)C)C(=O)N[C@@H](C(=O)NCC(=O)N[C@H](C)C(=O)N[C@H](CC(N)=O)C(=O)N[C@H](C)C(N)=O)C(C)C)C(C)C)C(C)C)[C@H](C)O
notes: Synthetic all-D analog; also called D-Dermaseptin S4 L7K (27-mer)
B5: D-Piscidin 1 V12K (peptide)
peptide: [dF][dF][dH][dH][dI][dF][dR]G[dI][dV][dH][dK]G[dK][dT][dI][dH][dR][dL][dV][dT]G-NH2
modifications: N-terminus assumed
SMILES: CC[C@@H](C)[C@@H](NC(=O)CNC(=O)[C@@H](CCCNC(=N)N)NC(=O)[C@@H](Cc1ccccc1)NC(=O)[C@H](NC(=O)[C@@H](Cc1c[nH]cn1)NC(=O)[C@@H](Cc1c[nH]cn1)NC(=O)[C@@H](Cc1ccccc1)NC(=O)[C@H](N)Cc1ccccc1)[C@H](C)CC)C(=O)N[C@@H](C(=O)N[C@H](Cc1c[nH]cn1)C(=O)N[C@H](CCCCN)C(=O)NCC(=O)N[C@H](CCCCN)C(=O)N[C@@H](C(=O)N[C@@H](C(=O)N[C@H](Cc1c[nH]cn1)C(=O)N[C@H](CCCNC(=N)N)C(=O)N[C@H](CC(C)C)C(=O)N[C@@H](C(=O)N[C@@H](C(=O)NCC(N)=O)[C@H](C)O)C(C)C)[C@H](C)CC)[C@H](C)O)C(C)C
notes: Synthetic all-D analog
B6: D-Piscidin 1 (peptide)
peptide: [dF][dF][dH][dH][dI][dF][dR]G[dI][dV][dH][dV]G[dK][dT][dI][dH][dR][dL][dV][dT]G-NH2
modifications: N-terminus assumed
SMILES: CC[C@@H](C)[C@@H](NC(=O)CNC(=O)[C@@H](CCCNC(=N)N)NC(=O)[C@@H](Cc1ccccc1)NC(=O)[C@H](NC(=O)[C@@H](Cc1c[nH]cn1)NC(=O)[C@@H](Cc1c[nH]cn1)NC(=O)[C@@H](Cc1ccccc1)NC(=O)[C@H](N)Cc1ccccc1)[C@H](C)CC)C(=O)N[C@@H](C(=O)N[C@H](Cc1c[nH]cn1)C(=O)N[C@@H](C(=O)NCC(=O)N[C@H](CCCCN)C(=O)N[C@@H](C(=O)N[C@@H](C(=O)N[C@H](Cc1c[nH]cn1)C(=O)N[C@H](CCCNC(=N)N)C(=O)N[C@H](CC(C)C)C(=O)N[C@@H](C(=O)N[C@@H](C(=O)NCC(N)=O)[C@H](C)O)C(C)C)[C@H](C)CC)[C@H](C)O)C(C)C)C(C)C
notes: also called native D-Piscidin 1
B7: Control C (peptide)
peptide: Ac-ELEKGGLEGEKGGKELEK-NH2
notes: also called control peptide C; random coil control peptide (C)

Biological target: the molecule itself
Test: RP-HPLC temperature profiling, self-association (dimerization/oligomerization)
Experimental: (§1) The purity of the peptides was verified by analytical RP-HPLC and the peptides were characterized by mass spectrometry (LC/MS). Crude and purified peptides were analyzed on an Agilent 1100 series liquid chromatograph (Little Falls, Del., USA). Analytical runs were performed on a Zorbax 300 SB-C₈ column (150×2.1 mm I.D.; 5 μm particle size, 300 Å pore size) from Agilent Technologies using a linear AB gradient (1% acetonitrile/min) and a flow rate of 0.25 mL/min, where eluent A was 0.2% aqueous TFA, pH 2, and eluent B was 0.18% TFA in acetonitrile. Temperature profiling analyses were performed on the same column in 3° C. increments, from 5° C. to 80° C. using a linear AB gradient of 0.5% acetonitrile/min.
^atR denotes retention time in RP-HPLC at pH 2 and room temperature, and is a measure of overall peptide hydrophobicity. ^bThe mean residue molar ellipticities [θ]₂₂₂ (deg cm²/dmol) at wavelength 222 nm were measured at 5° C. in benign conditions (100 mM KCl, 50 mM NaH₂PO₄/Na₂HPO₄, pH 7.0) or in benign buffer containing 50% trifluoroethanol (TFE) by circular dichroism spectroscopy. ^cThe helical content (as a percentage) of a peptide relative to the molar ellipticity value of parent peptide (D-Piscidin 1 or D-Dermaseptin S4) in the presence of 50% TFE. ^dPA denotes self-association parameter (dimerization/oligomerization) of each peptide during RP-HPLC temperature profiling, which is the maximal retention time difference of (tR^t-tR⁵ for peptide analogs)-(tR^t-tR⁵ for control peptide C) within the temperature range; tR^t-tR⁵ is the retention time difference of a peptide at a specific temperature (tR^{t)} compared with that at 5° C. (tR⁵). The sequence of the random coil control peptide C is shown in Table 1. ^eAmphipathicity was determined by calculation of hydrophobic moment using hydrophobicity coefficients determined by reversed-phase chromatography; see methods for details. The amphipathicity values for D-Dermaseptin S4 and its analogs (residues 1-14) are shown in brackets.

Protein	PA (self-association parameter) [min]
B1	1.29
B2	0.95
B3	2.29
B4	4.8
B5	0.69
B6	0.78

Biological target: the molecule itself
Test: RP-HPLC temperature profiling, 5 to 80 C, pH 2 (self-association)
Experimental: as §1
Control peptide C is a monomeric random coil peptide in both aqueous and hydrophobic media; thus, its linear decrease in peptide retention behavior with increasing temperature within the range of 5° C. to 80° C. represents only the general effects of temperature due to greater solute diffusivity and enhanced mass transfer between the stationary and mobile phase at higher temperatures. To allow for these general temperature effects, the data for the control peptide was subtracted from each temperature profile, as shown in FIG. 6B. Thus, the peptide self-association parameter, PA, represents the maximum change in peptide retention time relative to the random coil peptide C. […]

Protein	binding result
B7	no binding
